B1: FLAG-tagged FBXO44 FBA domain (FBXO44^FBA) [human] / RGS2^5–16 peptide (RGS2 degron, Met^5–Met^16) [not stated] (parent complex)
chain 1: FYFLRSLHRNLLHNPCAEEGFEFWSLDVNGGDEWKVEDLSRDQRKEFPNDQVKKYFVTSYYTCLKSQVVDLKAEGYWEELMDTTRPDIEVKDWFAARPDCGSKYQLCVQLLSSAHAPLGTFQPDPATIQQKSDAKWREVSHTFSNYPPGVRYIWFQHGGVDTHYWAGWYGPRVTNSSITIGP
chain 2: MFLAVQHDCRPM

One experiment covers variants of B1. As to the kind of experiment: peptide microarray (PEPperPRINT), α-FLAG fluorescence; three independent experiments with three technical replicates each; parent: 100; read off a plot.
As to chain 2 MFLAVQHDCRPG [chain 2 M12G], the percent of parent was roughly 72 % Parent. Take chain 2 MFLAVQHDCRPD [chain 2 M12D]: the percent of parent was roughly 130 % Parent. Same read-out and setting: next, chain 2 MFLAVQHDCRPN [chain 2 M12N]: roughly 87 % Parent. As to chain 2 MFLAVQHDCRPA [chain 2 M12A], the percent of parent was roughly 67 % Parent. Take chain 2 MFLAVQHDCRPV [chain 2 M12V]: the percent of parent is roughly 90 % Parent. The same measure, in the same setting: the value for chain 2 MFLAVQHDCRPC [chain 2 M12C] was roughly 130 % Parent; that for chain 2 MFLAVQHDCRPK [chain 2 M12K] was roughly 140 % Parent.

On to chain 2 MFLAVQHDCRPW [chain 2 M12W], for which the percent of parent was roughly 110 % Parent. For chain 2 MFLAVQHDCRPE [chain 2 M12E], the percent of parent was roughly 110 % Parent. Same read-out and setting: next, chain 2 MFLAVQHDCRPH [chain 2 M12H]: roughly 90 % Parent; chain 2 MFLAVQHDCRPI [chain 2 M12I]: roughly 85 % Parent. Still for that read-out and setting: next, chain 2 MFLAVQHDCRPQ [chain 2 M12Q]: roughly 88 % Parent; chain 2 MFLAVQHDCRPS [chain 2 M12S]: roughly 92 % Parent. Still for that read-out and setting: the value for chain 2 MFLAVQHDCRPF [chain 2 M12F] was roughly 100 % Parent; that for chain 2 MFLAVQHDCRPL [chain 2 M12L] was roughly 90 % Parent. In the case of chain 2 MFLAVQHDCRPP [chain 2 M12P], the percent of parent was roughly 90 % Parent. Same read-out and setting: next, chain 2 MFLAVQHDCRPT [chain 2 M12T]: roughly 85 % Parent.

Take chain 2 MFLAVQHDCRPY [chain 2 M12Y]: the percent of parent was roughly 120 % Parent.

Variants of B1 are the subject of a further experiment. The experiment is described as above. This is another data set of the same source.
For chain 2 MFLAVQGDCRPM [chain 2 H7G], the percent of parent is roughly 90 % Parent. The same measure, in the same setting: next, chain 2 MFLAVQCDCRPM [chain 2 H7C]: roughly 120 % Parent. The same measure, in the same setting: next, chain 2 MFLAVQNDCRPM [chain 2 H7N]: roughly 100 % Parent; chain 2 MFLAVQTDCRPM [chain 2 H7T]: roughly 95 % Parent; chain 2 MFLAVQLDCRPM [chain 2 H7L]: roughly 100 % Parent. Same read-out and setting: next, chain 2 MFLAVQMDCRPM [chain 2 H7M]: roughly 95 % Parent. On to chain 2 MFLAVQFDCRPM [chain 2 H7F], for which the percent of parent was roughly 100 % Parent. In the case of chain 2 MFLAVQADCRPM [chain 2 H7A], the percent of parent is roughly 95 % Parent. Regarding chain 2 MFLAVQDDCRPM [chain 2 H7D], the percent of parent was roughly 100 % Parent. Same read-out and setting: next, chain 2 MFLAVQYDCRPM [chain 2 H7Y]: roughly 110 % Parent.

With chain 2 MFLAVQQDCRPM [chain 2 H7Q], the percent of parent was roughly 110 % Parent. As to chain 2 MFLAVQVDCRPM [chain 2 H7V], the percent of parent is roughly 100 % Parent. Turning to chain 2 MFLAVQEDCRPM [chain 2 H7E], the percent of parent is roughly 95 % Parent.

With chain 2 MFLAVQKDCRPM [chain 2 H7K], the percent of parent is roughly 120 % Parent.

Regarding chain 2 MFLAVQSDCRPM [chain 2 H7S], the percent of parent is roughly 100 % Parent. On the same count and under the same terms, next, chain 2 MFLAVQIDCRPM [chain 2 H7I]: roughly 100 % Parent. The same measure, in the same setting: next, chain 2 MFLAVQPDCRPM [chain 2 H7P]: roughly 110 % Parent; chain 2 MFLAVQWDCRPM [chain 2 H7W]: roughly 110 % Parent.

Variants of B1 are the subject of the next experiment. Described as above. The source holds these as a separate data set.
On to chain 2 MFLAVQHDCRCM [chain 2 P11C], for which the percent of parent was roughly 120 % Parent.

On to chain 2 MFLAVQHDCRWM [chain 2 P11W], for which the percent of parent is roughly 110 % Parent. For chain 2 MFLAVQHDCRNM [chain 2 P11N], the percent of parent was roughly 85 % Parent.

On to chain 2 MFLAVQHDCRIM [chain 2 P11I], for which the percent of parent is roughly 88 % Parent. Still for that read-out and setting: next, chain 2 MFLAVQHDCRLM [chain 2 P11L]: roughly 82 % Parent. In the case of chain 2 MFLAVQHDCRDM [chain 2 P11D], the percent of parent is roughly 130 % Parent. Same read-out and setting: the value for chain 2 MFLAVQHDCRVM [chain 2 P11V] was roughly 85 % Parent.

A further experiment covers variants of B1. The experiment is described as above. This is another data set of the same source.
chain 2 MFLAVQHDHRPM [chain 2 C9H]: the percent of parent is roughly 17 % Parent.

As to chain 2 MFLAVQHDLRPM [chain 2 C9L], the percent of parent was roughly 13 % Parent. On the same count and under the same terms, next, chain 2 MFLAVQHDYRPM [chain 2 C9Y]: roughly 55 % Parent.

For the variant chain 2 MFLAVQHDVRPM [chain 2 C9V], the percent of parent was roughly 13 % Parent. Turning to chain 2 MFLAVQHDPRPM [chain 2 C9P], the percent of parent was roughly 15 % Parent.

chain 2 MFLAVQHDDRPM [chain 2 C9D]: the percent of parent is roughly 28 % Parent. Same read-out and setting: the value for chain 2 MFLAVQHDSRPM [chain 2 C9S] was roughly 13 % Parent; that for chain 2 MFLAVQHDNRPM [chain 2 C9N] was roughly 15 % Parent; that for chain 2 MFLAVQHDMRPM [chain 2 C9M] was roughly 13 % Parent. Same read-out and setting: the value for chain 2 MFLAVQHDWRPM [chain 2 C9W] was roughly 50 % Parent; that for chain 2 MFLAVQHDARPM [chain 2 C9A] was roughly 25 % Parent; that for chain 2 MFLAVQHDTRPM [chain 2 C9T] was roughly 15 % Parent.

On to chain 2 MFLAVQHDFRPM [chain 2 C9F], for which the percent of parent is roughly 20 % Parent. Still for that read-out and setting: the value for chain 2 MFLAVQHDERPM [chain 2 C9E] was roughly 15 % Parent. chain 2 MFLAVQHDQRPM [chain 2 C9Q]: the percent of parent was roughly 25 % Parent. In the case of chain 2 MFLAVQHDIRPM [chain 2 C9I], the percent of parent is roughly 15 % Parent. On to chain 2 MFLAVQHDKRPM [chain 2 C9K], for which the percent of parent is roughly 47 % Parent. For chain 2 MFLAVQHDGRPM [chain 2 C9G], the percent of parent is roughly 13 % Parent.
